Source: US20050182242A1, “Global analysis of protein activities using proteome chips” (priority 2001, published 2005)

Columns and labels:
PI(3,4)P2 liposomes = assay: Yeast proteome chip probed with PI(3,4)P2 liposomes; details: liposome binding signal on yeast proteome chip, Cy3-streptavidin detection
PI(4)P liposomes = assay: Yeast proteome chip probed with PI(4)P liposomes; details: liposome binding signal on yeast proteome chip, Cy3-streptavidin detection
PI(3)P liposomes = assay: Yeast proteome chip probed with PI(3)P liposomes; details: liposome binding signal on yeast proteome chip, Cy3-streptavidin detection
PI(3,4,5)P3 liposomes = assay: Yeast proteome chip probed with PI(3,4,5)P3 liposomes; details: liposome binding signal on yeast proteome chip, Cy3-streptavidin detection
[1] = system: phospholipids (phosphatidylinositols vs phosphatidylcholine); assay: Proteome chip lipid-binding screen, overall analysis of six liposomes (PI/PC specificity); details: for identified as lipid-binding interactor: phospholipid liposome probes; for preferential binding of particular phosphatidylinositol lipids: compared with phosphatidylcholine
Source text: FIGS. 4A-4D. Analysis of the phosphatidylinositol-binding proteins. To determine the phosphatidylinositol (“PI”)-binding specificity of 150 positive proteins, their binding signals were normalized against the corresponding binding signals of phosphatidylcholine (“PC”). Based on the ratios (“PI/PC”), the proteins were grouped into four categories: (A) 30 strong and specific, (B) 43 strong and nonspecific, (C) 19 weak and specific, and (D) 58 weak and nonspecific phosphatidylinositol-binding proteins. The intensity represents the PI/PC signal ratio as shown by the scale in the figure. The column, labeled “10^n” to the right of the PI/PC binding ratios indicates the maximum binding signal intensity (open boxes) and its confidence interval (solid horizontal lines); the numbers indicate the log of the values. Boxes in the three columns to the right of the confidence interval column indicate membrane-associated proteins (“Membrane”), kinases (“Kinase”), and uncharacterized ORFs (“Unknown”), respectively.
To identify PI-binding proteins in yeast, liposomes were used as probes because the liposome provides the most relevant physiological condition to assay the interactors. Six types of liposomes were used. Each contains phosphatidylcholine (“PC”) with 1% (w/w) N-(biotinoyl)-1,2-dihexadecanoyl-sn-glycero-3-phosphoethanolamine, triethylammonium salt (biotin DHPE). The biotinylated lipid serves as a label that can be detected by Cy3-streptavidin (21). In addition to PC, the five other liposomes contain either 5% (w/w) PI(3)P, PI(4)P, PI(3,4)P2, PI(4,5)P2, or PI(3,4,5)P3 (FIG. 3A).
The protein-liposome interaction was assayed as follows. Appropriate amounts of each lipid in chloroform were mixed and dried under nitrogen. The lipid mixture was resuspended in TBS buffer by vortexing. The liposomes were created by sonication. Blocked proteome chips were washed three to five times in PBS buffer, and the extra liquid on the glass surface was removed by tapping the slides vertically on a KIMWIPE™. 200 μl of liposome solution was added to the proteome chip and immediately covered by a hydrophobic plastic cover slip (GRACE BIO-LAB™, USA). After trapped air bubbles were removed, the chip was incubated in a humidity chamber at RT for one hour. To remove the cover slip, the chip was immersed into large volume of PBS buffer (50 ml), so that the slip would float away. The chip was then moved to a second PBS bath (>50 ml) and washed 3×5 min with shaking at RT. After removing extra liquid on the surface of the chip, about 100 μl of Cy3 or Cy5 conjugated streptavidin (PIERCE™, USA; 1:2000 to 1:4000 dilution) was added to the surface and covered by a hydrophobic plastic cover slip (GRACE BIO-LABS™, USA). The chip was incubated for greater than 30 min in the dark at RT. The chip was then washed as described above. To completely remove the liquid on the chip, the chip was spun to dryness at 1500-2000 rpm for 5-10 min at RT.
An algorithm was devised to assist in the identification of positive signals (42). Fifty-two (35%) of the interactors (i.e., lipid-binding proteins) correspond to uncharacterized proteins thus ascribing the first biochemical activities to those proteins.
The interactors (i.e., phospholipid-binding proteins) were grouped in several ways (42). First, the interactors were sorted according to whether they bound lipids strongly or weakly, based on the phospholipid-binding signal relative to the amount of GST (FIG. 4). Slightly more (72%) of the strong lipid binding proteins (FIGS. 4A and 4B) were characterized relative to the weakly binding proteins (54%) (FIGS. 4C and 4D). Many of the strong lipid-binding proteins are membrane-associated, or are predicted to be associated with membranes, whereas fewer of the weaker binding proteins appear to be associated with membranes (FIG. 4, “Membrane” column). […] Moreover, thirteen of the seventeen protein kinases bind very strongly to the phospholipids. […]

[2] = system: phosphatidylcholine (PC) liposomes; assay: Yeast proteome chip probed with PC liposomes; details: liposome binding signal on yeast proteome chip, Cy3-streptavidin detection
Method in brief: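 Binding detected by fluorescent streptavidin (Cy3 or Cy5, >30 min in the dark at RT) recognizing biotin-DHPE (1% w/w) in PC liposomes, which carried 5% (w/w) of the named phosphoinositide unless PC-only. Liposomes, made by sonication in TBS, were applied to blocked chips for 1 h at RT, then washed in PBS.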

PI(4,5)P2 liposomes = assay: Yeast proteome chip probed with PI(4,5)P2 liposomes; details: liposome binding signal on yeast proteome chip, Cy3-streptavidin detection

B1: SNF1: yeast protein kinase, regulator of glucose metabolism, GST-HisX6 fusion (protein, UniProt P06782 1-633, looked up)
Carbon …: MSSNNNTNTAPANANSSHHHHHHHHHHHHHGHGGSNSTLNNPKSSLADGAHIGNYQIVKTLGEGSFGKVKLAYHTTTGQKVALKIINKKVLAKSDMQGRIEREISYLRLLRHPHIIKLYDVIKSKDEIIMVIEYAGNELFDYIVQRDKMSEQEARRFFQQIISAVEYCHRHKIVHRDLKPENLLLDEHLNVKIADFGLSNIMTDGNFLKTSCGSPNYAAPEVISGKLYAGPEVDVWSCGVILYVMLCRRLPFDDESIPVLFKNISNGVYTLPKFLSPGAAGLIKRMLIVNPLNRISIHEIMQDDWFKVDLPEYLLPPDLKPHPEEENENNDSKKDGSSPDNDEIDDNLVNILSSTMGYEKDEIYESLESSEDTPAFNEIRDAYMLIKENKSLIKDMKANKSVSDELDTFLSQSPPTFQQQSKSHQKSQVDHETAKQHARRMASAITQQRTYHQSPFMDQYKEEDSTVSILPTSLPQIHRANMLAQGSPAASKISPLVTKKSKTRWHFGIRSRSYPLDVMGEIYIALKNLGAEWAKPSEEDLWTIKLRWKYDIGNKTNTNEKIPDLMKMVIQLFQIETNNYLVDFKFDGWESSYGDDTTVSNISEDEMSTFSAYPFLHLTTKLIMELAVNSQSN
PI(3,4)P2 liposomes
  PI(3, 4)P2: 298.26
PI(4)P liposomes
  PI(4)P: 1795.06
PI(3)P liposomes
  PI(3)P: 202.00
PI(3,4,5)P3 liposomes
  PI(3, 4, 5)P3: 560.70
[1]
  identified as lipid-binding interactor: identified
[2]
  PC: 1774.37
PI(4,5)P2 liposomes
  PI(4, 5)P2: 423.73

B2: PYK1: yeast pyruvate kinase, GST-HisX6 fusion (protein, UniProt P00549 2-500, looked up)
Pyruvate kinase 1: SRLERLTSLNVVAGSDLRRTSIIGTIGPKTNNPETLVALRKAGLNIVRMNFSHGSYEYHKSVIDNARKSEELYPGRPLAIALDTKGPEIRTGTTTNDVDYPIPPNHEMIFTTDDKYAKACDDKIMYVDYKNITKVISAGRIIYVDDGVLSFQVLEVVDDKTLKVKALNAGKICSHKGVNLPGTDVDLPALSEKDKEDLRFGVKNGVHMVFASFIRTANDVLTIREVLGEQGKDVKIIVKIENQQGVNNFDEILKVTDGVMVARGDLGIEIPAPEVLAVQKKLIAKSNLAGKPVICATQMLESMTYNPRPTRAEVSDVGNAILDGADCVMLSGETAKGNYPINAVTTMAETAVIAEQAIAYLPNYDDMRNCTPKPTSTTETVAASAVAAVFEQKAKAIIVLSTSGTTPRLVSKYRPNCPIILVTRCPRAARFSHLYRGVFPFVFEKEPVSDWTDDVEARINFGIEKAKEFGILKKGDTYVSIQGFKAGAGHSNTLQVSTV
modifications: GST-HisX6 tag
notes: yeast pyruvate kinase, GST-HisX6 fusion
PI(3,4)P2 liposomes
  PI(3, 4)P2: −5.02
PI(4)P liposomes
  PI(4)P: 10.45
PI(3)P liposomes
  PI(3)P: −9.00
PI(3,4,5)P3 liposomes
  PI(3, 4, 5)P3: −1.12
[1]
  identified as lipid-binding interactor: identified
[2]
  PC: 6.46
PI(4,5)P2 liposomes
  PI(4, 5)P2: −13.06

B3: ATP1: yeast alpha subunit of F1-ATP synthase, GST-HisX6 fusion (protein, UniProt P07251 36-545, looked up)
ATP synthase subunit alpha, …: ASTKAQPTEVSSILEERIKGVSDEANLNETGRVLAVGDGIARVFGLNNIQAEELVEFSSGVKGMALNLEPGQVGIVLFGSDRLVKEGELVKRTGNIVDVPVGPGLLGRVVDALGNPIDGKGPIDAAGRSRAQVKAPGILPRRSVHEPVQTGLKAVDALVPIGRGQRELIIGDRQTGKTAVALDTILNQKRWNNGSDESKKLYCVYVAVGQKRSTVAQLVQTLEQHDAMKYSIIVAATASEAAPLQYLAPFTAASIGEWFRDNGKHALIVYDDLSKQAVAYRQLSLLLRRPPGREAYPGDVFYLHSRLLERAAKLSEKEGSGSLTALPVIETQGGDVSAYIPTNVISITDGQIFLEAELFYKGIRPAINVGLSVSRVGSAAQVKALKQVAGSLKLFLAQYREVAAFAQFGSDLDASTKQTLVRGERLTQLLKQNQYSPLATEEQVPLIYAGVNGHLDGIELSRIGEFESSFLSYLKSNHNELLTEIREKGELSKELLASLKSATESFVATF
modifications: GST-His6 tag
notes: yeast alpha subunit of F1-ATP synthase, GST-HisX6 fusion
PI(3,4)P2 liposomes
  PI(3, 4)P2: 11.93
PI(4)P liposomes
  PI(4)P: 28.09
PI(3,4,5)P3 liposomes
  PI(3, 4, 5)P3: 26.44
[1]
  preferential binding of particular phosphatidylinositol lipids: preferentially binds PI(3,4)P2
[2]
  PC: 0.29
PI(4,5)P2 liposomes
  PI(4, 5)P2: 46.38

B4: SPS2: yeast sporulation protein of prospore membrane, GST-HisX6 fusion (protein, UniProt P08459 57-475, looked up)
Sporulation-specific protein 2: AVEPNGGPNILDHNIMLVNTNATIPKKEQTDFEVISPTKQTQVDEDCKKGLYHIENAGNLIELQAKCWKVVGNIEISSNYSGSLIDLGLIREIEGDLIIKNNKHIFRIQGYNLESLGKLELDSLTSFVSLDFPALKEVETVDWRVLPILSSVVINGNIKKIKNIIISDTALTSIDYFNNVKKVDIFNINNNRFLENLFASLESVTKQLTVHSNAKELELDLSNLHTVENMTIKDVSEIKLAKLSSVNSSLEFIENQFSSLELPLLAKVQGTLGLIDNKNLKKLNFSNATDIQGGLMIANNTELAKIDFFPKLRQIGGAIYFEGSFDKIDLPELKLVKGSAYIKSSSEELNCEEFTSPKAGRSIIRGGKIECTSGMKSKMLNVDEEGNVLGKQETDNDNGKKEKGKNGAKSQGSSKKMEN
modifications: GST-His6 tag
notes: yeast sporulation protein of prospore membrane, GST-HisX6 fusion
PI(3,4)P2 liposomes
  PI(3, 4)P2: 54.63
PI(4)P liposomes
  PI(4)P: 47.47
PI(3)P liposomes
  PI(3)P: 18.50
PI(3,4,5)P3 liposomes
  PI(3, 4, 5)P3: 25.31
[1]
  preferential binding of particular phosphatidylinositol lipids: preferentially interacts with PI(3)P
[2]
  PC: 44.61
PI(4,5)P2 liposomes
  PI(4, 5)P2: 64.02

B5: STP22: yeast protein required for vacuolar targeting of plasma membrane proteins, GST-HisX6 fusion (protein, UniProt P25604 1-385, looked up)
Suppressor protein STP22 of …: MSANGKISVPEAVVNWLFKVIQPIYNDGRTTFHDSLALLDNFHSLRPRTRVFTHSDGTPQLLLSIYGTISTGEDGSSPHSIPVIMWVPSMYPVKPPFISINLENFDMNTISSSLPIQEYIDSNGWIALPILHCWDPAAMNLIMVVQELMSLLHEPPQDQAPSLPPKPNTQLQQEQNTPPLPPKPKSPHLKPPLPPPPPPQPASNALDLMDMDNTDISPTNHHEMLQNLQTVVNELYREDVDYVADKILTRQTVMQESIARFHEIIAIDKNHLRAVEQAIEQTMHSLNAQIDVLTANRAKVQQFSSTSHVDDEDVNSIAVAKTDGLNQLYNLVAQDYALTDTIECLSRMLHRGTIPLDTFVKQGRELARQQFLVRWHIQRITSPLS
modifications: GST-His6 fusion tag
PI(3,4)P2 liposomes
  PI(3, 4)P2: 8.79
PI(4)P liposomes
  PI(4)P: 10.89
PI(3)P liposomes
  PI(3)P: 51.50
PI(3,4,5)P3 liposomes
  PI(3, 4, 5)P3: 22.05
[1]
  preferential binding of particular phosphatidylinositol lipids: preferentially binds PI(4)P
[2]
  PC: 2.93
PI(4,5)P2 liposomes
  PI(4, 5)P2: −8.27

B6: GPM3: yeast phosphoglycerate mutase, GST-HisX6 fusion (protein, UniProt Q12326 1-303, looked up)
Phosphoglycerate mutase 3: MTVTDTFKLFILRHGQSELNSENIFCGWIDAQLTEKGKSQARHSAKLIKQFCDSNNISLPQIGYTSRLIRTQQTMDVILEELGLKHTNYVITTNTNIKEELQDTRFEGSMPVLQTWRLNERHYGAWQGQRKPDILKEYGKEKYMYIRRDYNGKPPKVNLNLEMVQEENDQGSSTGYDFKEPNRHLKYGPEEKANERLPESESLCEVVVRLKPFLNNVVLSTANKISQESCVIVGHGSSVRSLLKVLEGISDEDIKDVDIPNGIPLVIELDRDNYSFVRKFYLDPESAKVNAQMVRDEGFEKNP
modifications: GST-His6 tag
notes: yeast phosphoglycerate mutase, GST-HisX6 fusion
PI(3,4)P2 liposomes
  PI(3, 4)P2: 85.40
PI(4)P liposomes
  PI(4)P: 85.35
PI(3)P liposomes
  PI(3)P: 42.50
PI(3,4,5)P3 liposomes
  PI(3, 4, 5)P3: 66.04
[1]
  identified as lipid-binding interactor: identified
[2]
  PC: 137.64
PI(4,5)P2 liposomes
  PI(4, 5)P2: 112.57
